From publication PMC12680531, “A novel TM4SF4-targeting therapeutic antibody candidate with antitumor activity by blocking IGF1R and CD44 signaling and downregulating PD-L1 and B7-H4” (Theranostics, 2026)
No end group written: not given here.

Biological target: T1, biotinylated hTM4SF4 (T126-E140) peptide containing a GSAGGS spacer (Homo sapiens, also: biotin, position not given here, GSAGGS spacer, position not given here)
T1 construct: human TM4SF4, residues T126-E140 of the large extracellular loop; also called biotinylated hTM4SF4 peptide; hTM4SF4 peptide
T1 chain: TWGYPFHDGDYLNDE
Assay: SPR; Biacore T200; biotinylated hTM4SF4 peptide with GSAGGS spacer immobilised on a streptavidin chip; antibodies in two-fold dilutions (128-1 nM or 512-16 nM) in HBS-EP+; 25°C; 30 μL/min; 1:1 binding model
Conditions: both partners purified

Kd: 2.66 nM
B1: murine anti-hTM4SF4 monoclonal antibody 2B7 (antibody, V domains shown)
VH: EVKLEESGPGILQPSQTLSLTCSFSGFSLSTYGIGVSWIRQPSGKGLEWLAHIWWNDNKYYNTALKSRLTISKDTSNNQVFLKIASVDTADTATYYCARKEGSSAPFAYWGQGTLVTVSA
VL: not shown
notes: VH of murine 2B7; mouse IgG1 heavy chain constant region; Vκ of murine 2B7; mouse kappa light chain constant region; murine IgG1, kappa; also called murine 2B7; anti-hTM4SF4 mAb 2B7; source: murine hybridoma, purified from culture supernatant (protein G chromatography)
